{
  "source": "paper PMC5089723",
  "about": "“Structural Insights into the Nucleotide-Binding Domains of the P1B-type ATPases HMA6 and HMA8 from Arabidopsis thaliana” (PLoS ONE, 2016)",
  "target": "the molecule itself",
  "assay": "not stated; oligomeric state of the purified N/P domains and of their truncated fragments 'in solution'",
  "data": [
    {"protein": "HMA8 nucleotide binding and phosphorylation domains (HMA8^N/P, residues 526-806) (domain or fragment, Arabidopsis thaliana, UniProt B9DFX7 526-806, looked up, also called N/P domain of HMA8; source: expressed and purified) RGYLIRGGDVLERLASIDCVALDKTGTLTEGRPVVSGVASLGYEEQEVLKMAAAVEKTATHPIAKAIVNEAESLNLKTPETRGQLTEPGFGTLAEIDGRFVAVGSLEWVSDRFLKKNDSSDMVKLESLLDHKLSNTSSTSRYSKTVVYVGREGEGIIGAIAISDCLRQDAEFTVARLQEKGIKTVLLSGDREGAVATVAKNVGIKSESTNYSLSPEKKFEFISNLQSSGHRVAMVGDGINDAPSLAQADVGIALKIEAQENAASNAASVILVRNKLSHVVD", "values": [
      {"measurement": "stoichiometry N", "result": 2}
    ]},
    {"protein": "HMA6 nucleotide binding and phosphorylation domains (HMA6^N/P, residues 576-853) (domain or fragment, Arabidopsis thaliana, UniProt Q9SZC9 576-853, looked up, also called N/P domain of HMA6; source: expressed and purified) RGLLLRGGDILEKFSLVDTVVFDKTGTLTKGHPVVTEVIIPENPRHNLNDTWSEVEVLMLAAAVESNTTHPVGKAIVKAARARNCQTMKAEDGTFTEEPGSGAVAIVNNKRVTVGTLEWVKRHGATGNSLLALEEHEINNQSVVYIGVDNTLAAVIRFEDKVREDAAQVVENLTRQGIDVYMLSGDKRNAANYVASVVGINHERVIAGVKPAEKKNFINELQKNKKIVAMVGDGINDAAALASSNVGVAMGGGAGAASEVSPVVLMGNRLTQLLDAME", "values": [
      {"measurement": "stoichiometry N", "result": 2}
    ]}
  ]
}
